OD450 data for one molecule are collected here from patent publication CN114605551A.

The target in experiment [1] is CA24-2人腹水. In words: ELISA OD450/630, antibody 0 ng/ml (blank well), CA24-2 human ascites, HRP-labelled same antibody. Background: In an ELISA, binding on a coated surface is turned into a signal by an enzyme label.
Experiment [2] concerns the target CA24-2人腹水. The experiment in a line: ELISA OD450/630, antibody 125 ng/ml captured on goat anti-mouse IgG, CA24-2 human ascites, HRP-labelled same antibody.
For experiment [3], the target named is CA24-2人腹水. The experiment in a line: ELISA OD450/630, antibody 7.813 ng/ml captured on goat anti-mouse IgG, CA24-2 human ascites, HRP-labelled same antibody.
Experiment [4] concerns the target CA24-2人腹水. The experiment in a line: ELISA OD450/630, antibody 15.625 ng/ml captured on goat anti-mouse IgG, CA24-2 human ascites, HRP-labelled same antibody.
For experiment [5], the target named is CA24-2人腹水. In words: ELISA OD450/630, antibody 62.5 ng/ml captured on goat anti-mouse IgG, CA24-2 human ascites, HRP-labelled same antibody.
For experiment [6], the target named is CA24-2人腹水. In words: ELISA OD450/630: supernatant of transiently transfected CHO cells diluted 1000-fold, captured on goat anti-mouse IgG, CA24-2 human ascites, HRP-anti-CA24-2 detection; wells without supernatant OD <0.1.
Experiment [7] concerns the target CA24-2人腹水. The experiment in a line: ELISA OD450/630, antibody 31.25 ng/ml captured on goat anti-mouse IgG, CA24-2 human ascites, HRP-labelled same antibody.

B1: 实施例1的抗CA24-2抗体(WT) (antibody, mouse IgG1, kappa, V domains shown)
VH: EVKLVESGGGLVQPGGSLRLTCATSAFTFSDYYMEWVRQPPGKALEWLGFIRKKADGYTTEYSASIKGRFTISRDDSQNILYLQMNTLRAEDSATYYCARGISTATGVAYWGQGTLVTVSA
VL: DIVMTQSPSSLALSVGQKVTMSCKSSQSIVNTSNQKNYLAWYQQKPGQSPKLLVYWASTRETGVPDRFIGSGSGTDFTLAISSVQAEDLADYYCQQHYSVPFTFGSGTKLEIKR
On to B1, for which the OD450 was 0.052 OD with CA24-2人腹水 [1]; 1.63 OD with CA24-2人腹水 [2]; 0.246 OD with CA24-2人腹水 [3]; 0.329 OD with CA24-2人腹水 [4]; 1.46 OD with CA24-2人腹水 [5]; greater than 1 OD with CA24-2人腹水 [6]. The molecule further showed an OD450 in the experiment with CA24-2人腹水 [7] of 0.734 OD.
